Experimental data from PMC4357141.

Target: GST-sPol_PR_(D25N) (Glutathione S-Transferase tagged HIV-1 Pol polyprotein with a catalytically dead protease) (HIV-1)
Experiment: AlphaScreen or HTRF; titration: GST-sPol_PR_(D25N) constant at 20 nM, WT or D366N Flag-LEDGF/p75 titrated from 50 nM downward (1:2.5 series); glutathione donor and anti-Flag acceptor beads; 25 mM Tris/HCl pH 7.5, 150 mM NaCl, 1 mM DTT, 1 mM MgCl2, 0.1% BSA, 0.1% Tween 20; 1 h at 4°C, then 1 h at 23°C with beads; apparent

## Flag-LEDGF/p75 WT (lens epithelium-derived growth factor p75) (from UniProt O75475 1-530) (natural protein)
  Kd: 3.1 nM
